Test results: patent US20110033462A1 (published 2011)
Where two headings read alike, the source gives them in different places.

Experiments:
[1] = target: T1, JEV SA14-14-2 envelope (E) protein on virions (Japanese encephalitis virus strain …, UniProt P0DOH7 295-794); test: ELISA, virion-coated plate, Fab from ~100 µg/ml
T1 chain: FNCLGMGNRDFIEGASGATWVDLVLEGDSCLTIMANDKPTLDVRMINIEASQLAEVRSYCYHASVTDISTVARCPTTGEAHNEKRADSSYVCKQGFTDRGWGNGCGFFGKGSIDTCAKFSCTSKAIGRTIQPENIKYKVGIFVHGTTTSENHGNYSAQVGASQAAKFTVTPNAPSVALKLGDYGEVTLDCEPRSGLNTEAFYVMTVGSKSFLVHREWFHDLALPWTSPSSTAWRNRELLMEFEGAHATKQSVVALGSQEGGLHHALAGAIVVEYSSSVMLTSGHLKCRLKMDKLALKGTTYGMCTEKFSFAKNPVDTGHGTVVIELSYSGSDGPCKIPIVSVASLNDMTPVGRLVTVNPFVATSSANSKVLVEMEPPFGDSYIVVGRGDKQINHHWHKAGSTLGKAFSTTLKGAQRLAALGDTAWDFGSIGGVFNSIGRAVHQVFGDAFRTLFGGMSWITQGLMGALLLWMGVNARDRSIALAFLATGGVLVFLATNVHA

[2] = target: T1, JEV SA14-14-2 envelope (E) protein on …; test: ELISA on JEV virions (FIG. 4A), half maximum binding
[3] = target: T1, JEV SA14-14-2 envelope (E) protein on …; test: cell-based or functional assay
[4] = target: T2, recombinant JEV N-terminal 80% E protein (Japanese encephalitis virus strain …, UniProt P0DOH7 295-692); test: SPR (Biacore 3000), recombinant E immobilized, Fab in flow
T2 chain: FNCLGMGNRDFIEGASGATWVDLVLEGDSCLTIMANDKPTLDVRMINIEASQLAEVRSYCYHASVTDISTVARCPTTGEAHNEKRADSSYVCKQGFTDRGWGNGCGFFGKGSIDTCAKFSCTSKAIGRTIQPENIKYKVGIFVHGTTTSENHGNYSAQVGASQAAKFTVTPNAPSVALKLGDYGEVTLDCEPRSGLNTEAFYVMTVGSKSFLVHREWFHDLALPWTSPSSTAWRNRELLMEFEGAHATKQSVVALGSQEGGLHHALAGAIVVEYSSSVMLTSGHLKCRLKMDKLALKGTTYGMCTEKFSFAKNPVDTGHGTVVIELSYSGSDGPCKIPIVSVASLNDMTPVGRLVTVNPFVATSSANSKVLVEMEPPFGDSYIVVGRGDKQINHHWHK

[5] = target: T1, JEV SA14-14-2 envelope (E) protein on …; test: cell-based or functional assay
[6] = target: T1, JEV SA14-14-2 envelope (E) protein on …; test: ELISA on JEV virions captured by HMAF, concentration at half-maximal binding
DENV-3 (H87) virions = target: T3, DENV-3 (H87) virions (dengue virus type 3, strain H87, UniProt P27915 281-773); test: ELISA, virion-coated plate
T3 construct: mature

DENV-4 (814669) virions = target: T4, DENV-4 (814669) virions (dengue virus type 4, strain 814669, UniProt P09866 280-774); test: ELISA, virion-coated plate
T4 construct: mature

[7] = target: T5, Langat virus (LGTV) strain TP 21 virions (Langat virus, strain TP 21, UniProt P29837 281-776); test: ELISA, virion-coated plate
T5 construct: mature
T5 sequence: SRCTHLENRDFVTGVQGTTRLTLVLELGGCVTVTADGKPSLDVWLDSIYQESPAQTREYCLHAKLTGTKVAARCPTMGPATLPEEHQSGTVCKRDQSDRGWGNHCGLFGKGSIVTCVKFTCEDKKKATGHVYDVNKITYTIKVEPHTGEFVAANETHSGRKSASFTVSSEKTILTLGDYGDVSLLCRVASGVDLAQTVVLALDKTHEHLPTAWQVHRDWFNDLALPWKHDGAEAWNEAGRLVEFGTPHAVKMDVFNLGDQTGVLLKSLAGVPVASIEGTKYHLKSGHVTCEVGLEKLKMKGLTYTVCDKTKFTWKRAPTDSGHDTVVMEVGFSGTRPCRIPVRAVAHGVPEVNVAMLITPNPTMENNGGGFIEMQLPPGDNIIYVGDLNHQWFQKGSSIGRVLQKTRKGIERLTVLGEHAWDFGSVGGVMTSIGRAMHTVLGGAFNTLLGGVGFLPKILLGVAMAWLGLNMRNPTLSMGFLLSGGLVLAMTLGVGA

[8] = target: T1, JEV SA14-14-2 envelope (E) protein on …; test: cell-based or functional assay
[9] = target: T1, JEV SA14-14-2 envelope (E) protein on …; test: cell-based or functional assay
[10] = target: T1, JEV SA14-14-2 envelope (E) protein on …; test: cell-based or functional assay
[11] = target: JEV strain JE 1991 (genotype I) E protein on virus (Japanese encephalitis virus, strain JE …); test: cell-based or functional assay
[12] = target: JEV strain JKT 9092 (genotype IV) E protein on virus (Japanese encephalitis virus, strain JKT …); test: cell-based or functional assay
[13] = target: JEV strain Beijing (genotype III) E protein on virus (Japanese encephalitis virus, strain …); test: cell-based or functional assay
[14] = target: JEV strain JE B 1034/8 (genotype II) E protein on virus (Japanese encephalitis virus, strain JE …); test: cell-based or functional assay
[15] = target: T1, JEV SA14-14-2 envelope (E) protein on …; test: cell-based or functional assay
[16] = target: T1, JEV SA14-14-2 envelope (E) protein on …; test: ELISA on JEV virions
[17] = target: T2, recombinant JEV N-terminal 80% E protein; test: SPR, recombinant E immobilized

T4 sequence (P09866 280-774 limits assumed): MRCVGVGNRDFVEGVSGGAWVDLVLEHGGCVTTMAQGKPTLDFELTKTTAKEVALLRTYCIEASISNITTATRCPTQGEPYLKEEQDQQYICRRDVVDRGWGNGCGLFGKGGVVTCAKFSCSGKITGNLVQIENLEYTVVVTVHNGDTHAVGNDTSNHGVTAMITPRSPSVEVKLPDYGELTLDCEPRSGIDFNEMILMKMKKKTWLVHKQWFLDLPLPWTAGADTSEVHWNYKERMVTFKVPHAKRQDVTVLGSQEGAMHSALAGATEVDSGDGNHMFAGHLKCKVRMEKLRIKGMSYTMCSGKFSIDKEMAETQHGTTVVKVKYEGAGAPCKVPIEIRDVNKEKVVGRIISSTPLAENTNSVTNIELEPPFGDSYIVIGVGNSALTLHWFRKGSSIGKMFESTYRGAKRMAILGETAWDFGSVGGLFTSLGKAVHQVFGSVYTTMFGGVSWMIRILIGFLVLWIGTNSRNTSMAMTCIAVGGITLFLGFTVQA

B1: Fab A3 (Fab, V domains shown)
VH: EVQLLESGAEVKKPGSSVRISCKVSGTPYSSYVMNWVRQAPGQGLEWMGVFVPSLDRALYAQNFQGRLSITADTTTTYMELTSLKFEDTAVYYCATDFSVGWLRPLDRWGQGTLVTVSS
VL: ELQMTQSPSSLSASVGDRVTITCRASQGISNYLAWYQQKPGKAPKLLIYYASRLESGVPSRFSGSGSGTDYTLTISSLQPEDFATYYCQQYNSNPFTFGPGTKVDIKR
- ELISA titer (1/log10 dilution) [1]: 4.7 log10 reciprocal dilution
- EC50 [2]: ~10 nM
- PRNT50 [3]: 2.55 nM
- Kd [4]: 0.72 nM
- koff [4]: 2.8e-05 s⁻¹
- kon [4]: 40000 M⁻¹ s⁻¹
- PRNT50 titer [5]: 2.55 nM
- Kd [6]: 0.45 nM
- ELISA titer (1/log10 dilution) (DENV-3 (H87) virions): < 1 log10 reciprocal dilution
- binding result (DENV-3 (H87) virions): no binding
- ELISA titer (1/log10 dilution) (DENV-4 (814669) virions): < 1 log10 reciprocal dilution
- binding result (DENV-4 (814669) virions): no binding
- binding result [7]: no binding
- PRNT50 titer [8]: 2.55 nM

B2: humanized MAb A3 (antibody, V domains shown)
VH: EVQLLESGAEVKKPGSSVRISCKVSGTPYSSYVMNWVRQAPGQGLEWMGVFVPSLDRALYAQNFQGRLSITADTTTTYMELTSLKFEDTAVYYCATDFSVGWLRPLDRWGQGTLVTVSS
VL: ELQMTQSPSSLSASVGDRVTITCRASQGISNYLAWYQQKPGKAPKLLIYYASRLESGVPSRFSGSGSGTDYTLTISSLQPEDFATYYCQQYNSNPFTFGPGTKVDIKR
- PRNT50 (µg/ml) of MAb 1 alone [9]: 0.04 µg/mL
- Kd [6]: 0.15 nM
- occupancy of accessible antibody sites on the virion at neutralization [10]: 45%
- PRNT50 titer [11]: 0.04 nM
- PRNT50 titer [12]: 0.07 nM
- PRNT50 titer [8]: 0.2 nM
- PRNT50 titer [13]: 0.2 nM
- PRNT50 titer [14]: 0.04 nM
- PRNT50 [15]: 0.04 µg/mL

B3: Fab B2 (Fab, V domains shown)
VH: VQLLEQSGSEVKKPGASVKVSCKASGYPFTDYAMSWVRQAPGQGLEYMGWIFTNSGNPTYAPGFAGRFVFSLDISVNTAYLHIDSLKPEDTAVYYCARGIVTPAASGDYFDSWGQGTLVTVSS
VL: ELVLTQSPSSLSASIGDRVTITCRASQHISSWLAWYQQKPGKAPKPLIYAASSLKSGVPSRFSGSGSGTDFTLTISGLQPEDFATYYCQQYENSPVTFGGGTKVEIKR
- ELISA titer (1/log10 dilution) [1]: 4.2 log10 reciprocal dilution
- EC50 [2]: ~0.5 nM
- PRNT50 [3]: 0.25 nM
- Kd [4]: 110 nM
- koff [4]: 0.0046 s⁻¹
- kon [4]: 42000 M⁻¹ s⁻¹
- PRNT50 titer [5]: 0.25 nM
- Kd [6]: 0.28 nM
- ELISA titer (1/log10 dilution) (DENV-3 (H87) virions): < 1 log10 reciprocal dilution
- binding result (DENV-3 (H87) virions): no binding
- ELISA titer (1/log10 dilution) (DENV-4 (814669) virions): < 1 log10 reciprocal dilution
- binding result (DENV-4 (814669) virions): no binding
- binding result [7]: no binding
- Kd [16]: 0.15 nM
- PRNT50 titer [8]: 0.25 nM
- fold faster off-rate than Fab A3 or E3 [17]: > 120 fold
- fold weaker Kd than Fab A3 or E3 [17]: > 150 fold

B4: humanized MAb B2 (antibody, V domains shown)
VH: VQLLEQSGSEVKKPGASVKVSCKASGYPFTDYAMSWVRQAPGQGLEYMGWIFTNSGNPTYAPGFAGRFVFSLDISVNTAYLHIDSLKPEDTAVYYCARGIVTPAASGDYFDSWGQGTLVTVSS
VL: ELVLTQSPSSLSASIGDRVTITCRASQHISSWLAWYQQKPGKAPKPLIYAASSLKSGVPSRFSGSGSGTDFTLTISGLQPEDFATYYCQQYENSPVTFGGGTKVEIKR
- PRNT50 (µg/ml) of MAb 1 alone [9]: 0.005 µg/mL
- Kd [6]: 0.08 nM
- occupancy of accessible antibody sites on the virion at neutralization [10]: ~28%
- PRNT50 titer [11]: 0.02 nM
- PRNT50 titer [12]: 2 nM
- PRNT50 titer [8]: 0.03 nM
- PRNT50 titer [13]: 0.02 nM
- PRNT50 titer [14]: 0.02 nM
- PRNT50 [15]: 0.005 µg/mL

B5: Fab E3 (Fab, V domains shown)
VH: EVQLLESGPGLVRPSQTLSLTCAVSGASISGPLSYWTWIRQSPGKKMEHIGSMFYSGNTYYNPSLKGRITMSVDTSRNQFSLNLNSVTVADTAVYFCARRRETELFGLPIDYWGQGILVTVSS
VL: ELTQSPATLSVSPGERATLSCRASERISSSYLSWYQQKPGQAPRLLMYGTSTRATGIPARFSGSGSGTDFTLTISSLQPEDFAVYFCQQDYNLPWTFGQGTKLEIKR
- ELISA titer (1/log10 dilution) [1]: 4.2 log10 reciprocal dilution
- EC50 [2]: ~100 nM
- PRNT50 [3]: 84.9 nM
- Kd [4]: 0.35 nM
- koff [4]: 3.6e-05 s⁻¹
- kon [4]: 100000 M⁻¹ s⁻¹
- PRNT50 titer [5]: 84.9 nM
- Kd [6]: 0.98 nM
- ELISA titer (1/log10 dilution) (DENV-3 (H87) virions): < 1 log10 reciprocal dilution
- binding result (DENV-3 (H87) virions): no binding
- ELISA titer (1/log10 dilution) (DENV-4 (814669) virions): < 1 log10 reciprocal dilution
- binding result (DENV-4 (814669) virions): no binding
- binding result [7]: no binding
- PRNT50 titer [8]: 84.9 nM

B6: humanized MAb E3 (antibody, V domains shown)
VH: EVQLLESGPGLVRPSQTLSLTCAVSGASISGPLSYWTWIRQSPGKKMEHIGSMFYSGNTYYNPSLKGRITMSVDTSRNQFSLNLNSVTVADTAVYFCARRRETELFGLPIDYWGQGILVTVSS
VL: ELTQSPATLSVSPGERATLSCRASERISSSYLSWYQQKPGQAPRLLMYGTSTRATGIPARFSGSGSGTDFTLTISSLQPEDFAVYFCQQDYNLPWTFGQGTKLEIKR
- PRNT50 (µg/ml) of MAb 1 alone [9]: 0.09 µg/mL
- Kd [6]: 0.31 nM
- occupancy of accessible antibody sites on the virion at neutralization [10]: 66%
- PRNT50 titer [11]: 0.21 nM
- PRNT50 titer [12]: 0.36 nM
- PRNT50 titer [8]: 0.93 nM
- PRNT50 titer [13]: 0.71 nM
- PRNT50 titer [14]: 0.14 nM
- PRNT50 [15]: 0.09 µg/mL
